# Target: thrombin (alpha-thrombin) (Homo sapiens, UniProt P00734;P00734 P00734:315-363,P00734:364-622)
# Test: filter; 10 nM thrombin
# Details: not given
row,Binder,binding signal
1,TCCCTATCGAGCTGTGGTAGTATTCTGGTTTGGGTGGCTGAGGATCGATC (ssDNA) [AMX(398)_A7],26.5 % bound
2,TCCCGGATCCTCGTGGGTATTGTTGGGTTGGGTGGCTGAGGATCGATC (ssDNA) [AMX(399)_G12],40.6 % bound
3,TCCCGTCGAGCCGGGGTATGATTATGGGTGGGGTGGCTGAGGATCGATC (ssDNA) [AMX(398)_A9],28.3 % bound
4,TCCCATCGGTCCGGGGTAATTTACTGGGTCGGGTGGCTGAGGATCGATC (ssDNA) [AMX(398)_A8],40 % bound
5,TCCTGTCGATCGGTACGTTTTCGTTTCTGGGTGGCTGAGGATCGATC (ssDNA) [AMX(398)_C11],35.1 % bound
6,TCCCTTGATCTGGGGTGCGTTATTGTGGTTCGGGTGGCTGAGGATCGATC (ssDNA) [AMX(398)_E7],27.9 % bound
7,TCCCTTGTCGATTCTGGTATGTTTTGGTCCGGGTGGCTGAGGATCGATC (ssDNA) [AMX(398)_D7],35 % bound
8,TCCCAGCGGTCCTAATGGGTAGTGTTGGTTTGGGTGGCTGAGGATCGATC (ssDNA) [AMX(398)_D5],12 % bound
9,TCCCAACGATCTGTGGTTTTTTTGTTCTGGGTGGCTGAGGATCGATC (ssDNA) [AMX(398)_C1],35.8 % bound
10,TCCCATCGAGACGGGGTGTCTTTTGTGGCTTGGGTGGCTGAGGATCGATC (ssDNA) [AMX(398)_E6],29.5 % bound
11,TCCCATCGATCCGGGGTATTCTTATTTCTGGGTGGCTGAGGATCGATC (ssDNA) [AMX(398)_E1],23.4 % bound
12,TCCCTGCAATCGGTGCTCGAGAGGTTGGGTGGGTGGCTGAGGATCGATC (ssDNA) [AMX(398)_C12],22.8 % bound
13,TCCCAAGGATCCGGGGTAGTTAGTGGCTGAGGTGGCTGAGGATCGATC (ssDNA) [AMX(398)_C2],0.2 % bound
14,TCCCATCGAACCTCGAGGGTATTGTTGGTTTGGGTGGCTGAGGATCGATC (ssDNA) [AMX(399)_H1],21.2 % bound
15,TCCCGGAGATCTGAGGTGTTTTATTGGTTTGGGTGGCTGAGGATCGATC (ssDNA) [AMX(399)_H6],8.48 % bound
16,TCCCAATCGAGCCGGGGTTTGTTTGTTCTGGGTGGCTGAGGATCGATC (ssDNA) [AMX(398)_B1],31.3 % bound
17,TCCCGATCGGACGTGGTGGGTTACTTCTGGGTGGCTGAGGATCGATC (ssDNA) [AMX(398)_E5],25.6 % bound

row,Binder,binding signal
1,TCCCTGGAGATCCGGGGTAGTATACTGGTTTGGGTGGCTGAGGATCGATC (ssDNA) [AMX(398)_A12],35.4 % bound
2,TCCCGGATCTGTGGTAGGTTTGTTGGGTTGGGTGGCTGAGGATCGATC (ssDNA) [AMX(398)_E12],40.4 % bound
3,TCCCGATTATCCGTTGGTATTGTTGGTCTGGGTGGCTGAGGATCGATC (ssDNA) [AMX(398)_B12],20.1 % bound
4,TCCCTCGATCTTGGGGTACTATAGTGGTGTGGGTGGCTGAGGATCGATC (ssDNA) [AMX(398)_B10],26.8 % bound
5,TCCCGATTTGAGTTTAGTAGGGTGGGTAGGATGGTGGCTGAGGATCGATC (ssDNA) [AMX(398)_D1],20.7 % bound
6,TCCCATGATTGGCCGGGGTGTCTTTTGGGTCGGGTGGCTGAGGATCGATC (ssDNA) [AMX(398)_C6],28 % bound
7,TCCCCATCGATCCTGGTCTCTTTTGTTCTGGGTGGCTGAGGATCGATC (ssDNA) [AMX(399)_G11],12.8 % bound
8,TCCCATCGATTTGGGGTATGTTATGGGCTCGGGTGGCTGAGGATCGATC (ssDNA) [AMX(398)_A6],31.1 % bound
9,TCCCTGGTATCGTATCCAAAGGGGTGGTGTGGGTGGCTGAGGATCGATC (ssDNA) [AMX(399)_H8],23.3 % bound
10,TCCCTGATCCTTAGGCTAGGTTGGGTGGGGTGGTGGCTGAGGATCGATC (ssDNA) [AMX(398)_B5],12.5 % bound
11,TCCCGATCGTTTCGTGGGGTAGTGTTGGTTGGGGTGGCTGAGGATCGATC (ssDNA) [AMX(398)_C9],20.7 % bound
12,TCCCATTGATCTGTGGTGGTTTTGTGGTTTGGGTGGCTGAGGATCGATC (ssDNA) [AMX(398)_A2],26.7 % bound
13,TCCCTATCGACCGGGGTTCTTTCGTGGTTCGGGTGGCTGAGGATCGATC (ssDNA) [AMX(398)_E8],26.4 % bound
14,TCCCATGATCGGGTCGGTATTTGTTGGTCAGGGTGGCTGAGGATCGATC (ssDNA) [AMX(398)_D3],20 % bound
15,TCCCGGTTGTCGATTCTGGTATTGTTGGGCTGGGTGGCTGAGGATCGATC (ssDNA) [AMX(399)_H7],38.1 % bound
16,TCCCAGATGTGATCCGTATCCTGGTTTGGTTGGGTGGCTGAGGATCGATC (ssDNA) [AMX(398)_B3],17.5 % bound

# Target: prothrombin (Homo sapiens, UniProt P00734 P00734:44-622)
# Test: filter; 50 nM prothrombin
# Details: tags: Athens Research
# Description: Dot blot binding assays were performed throughout the selections to monitor the protein binding affinity of the pools. Trace ³²P-labeled RNA was combined with a dilution series of human Thrombin (1 nM-1000 nM) and incubated at room temperature for 30 minutes in 1×DPBS (w/ Ca²⁺ and Mg²⁺) (Gibco, Catalog #14040, Invitrogen, Carlsbad, Calif.) plus 0.1 mg/ml BSA in a final volume of 30 μl. The binding reactions were analyzed by nitrocellulose filtration using a Minifold I dot-blot, 96-well vacuum filtration manifold (Schleicher & Schuell, Keene, N.H.). A three-layer filtration medium was used, consisting (from top to bottom) of Protran nitrocellulose (Schleicher & Schuell, Keene, N.H.), Hybond-P nylon (Amersham Biosciences, Piscataway, N.J.) and GB002 gel blot paper (Schleicher & Schuell, Keene, N.H.). RNA that is bound to protein is captured on the nitrocellulose filter, whereas the non-protein bound RNA is captured on the nylon filter. The gel blot paper was included simply as a supporting medium for the other filters. Following filtration, the filter layers were separated, dried and exposed on a phosphor screen (Amersham Biosciences, Piscataway, N.J.) and quantified using a Storm 860 Phosphorimager® blot imaging system (Amersham Biosciences, Piscataway, N.J.).
# Based on pool binding monitored throughout the selections as described above, Round 9 Pools from both Selection #2 and #3 were also cloned using a TOPO TA Cloning kit (Invitrogen, Carlsbad, Calif.) according to manufacturer's instructions, and sequenced. Of the 136 sequences obtained from Round 9 of both selections, 130 unique sequences were selected for assaying in a single-point dot blot screen against thrombin and prothrombin to test for selective binding to thrombin. Clones were ordered from IDT (Coralville, Iowa) at 25 μmole synthesis scale. Clone transcripts were 5′ end labeled with γ̅³²P ATP and spin purified with Centrisep columns (Princeton Separations, Adelphia, N.J.) to remove excess label. Trace amounts of labeled clone were incubated with +/−10 nM Thrombin (or +/−50 nM prothrombin) and 0.1 mg/ml BSA in a total volume of 30 μl 1×DPBS (w/ Ca²⁺ and Mg²⁺) (Gibco, Catalog #14040, Invitrogen, Carlsbad, Calif.) for 30 minutes. Post incubation, the binding reaction applied the dot-blot binding assay apparatus previously described.
row,Binder,binding signal
1,TCCCTATCGAGCTGTGGTAGTATTCTGGTTTGGGTGGCTGAGGATCGATC (ssDNA) [AMX(398)_A7],25.4 % bound
2,TCCCGGATCCTCGTGGGTATTGTTGGGTTGGGTGGCTGAGGATCGATC (ssDNA) [AMX(399)_G12],41.1 % bound
3,TCCCGTCGAGCCGGGGTATGATTATGGGTGGGGTGGCTGAGGATCGATC (ssDNA) [AMX(398)_A9],29.7 % bound
4,TCCCATCGGTCCGGGGTAATTTACTGGGTCGGGTGGCTGAGGATCGATC (ssDNA) [AMX(398)_A8],43.9 % bound
5,TCCTGTCGATCGGTACGTTTTCGTTTCTGGGTGGCTGAGGATCGATC (ssDNA) [AMX(398)_C11],36.7 % bound
6,TCCCTTGATCTGGGGTGCGTTATTGTGGTTCGGGTGGCTGAGGATCGATC (ssDNA) [AMX(398)_E7],20.3 % bound
7,TCCCTTGTCGATTCTGGTATGTTTTGGTCCGGGTGGCTGAGGATCGATC (ssDNA) [AMX(398)_D7],34.6 % bound
8,TCCCAGCGGTCCTAATGGGTAGTGTTGGTTTGGGTGGCTGAGGATCGATC (ssDNA) [AMX(398)_D5],12.9 % bound
9,TCCCAACGATCTGTGGTTTTTTTGTTCTGGGTGGCTGAGGATCGATC (ssDNA) [AMX(398)_C1],37 % bound
10,TCCCATCGAGACGGGGTGTCTTTTGTGGCTTGGGTGGCTGAGGATCGATC (ssDNA) [AMX(398)_E6],30.3 % bound
11,TCCCATCGATCCGGGGTATTCTTATTTCTGGGTGGCTGAGGATCGATC (ssDNA) [AMX(398)_E1],20.9 % bound
12,TCCCTGCAATCGGTGCTCGAGAGGTTGGGTGGGTGGCTGAGGATCGATC (ssDNA) [AMX(398)_C12],15.5 % bound
13,TCCCAAGGATCCGGGGTAGTTAGTGGCTGAGGTGGCTGAGGATCGATC (ssDNA) [AMX(398)_C2],0.66 % bound
14,TCCCATCGAACCTCGAGGGTATTGTTGGTTTGGGTGGCTGAGGATCGATC (ssDNA) [AMX(399)_H1],20.4 % bound
15,TCCCGGAGATCTGAGGTGTTTTATTGGTTTGGGTGGCTGAGGATCGATC (ssDNA) [AMX(399)_H6],6.32 % bound
16,TCCCAATCGAGCCGGGGTTTGTTTGTTCTGGGTGGCTGAGGATCGATC (ssDNA) [AMX(398)_B1],32.7 % bound
17,TCCCGATCGGACGTGGTGGGTTACTTCTGGGTGGCTGAGGATCGATC (ssDNA) [AMX(398)_E5],25.4 % bound

row,Binder,binding signal
1,TCCCTGGAGATCCGGGGTAGTATACTGGTTTGGGTGGCTGAGGATCGATC (ssDNA) [AMX(398)_A12],37.5 % bound
2,TCCCGGATCTGTGGTAGGTTTGTTGGGTTGGGTGGCTGAGGATCGATC (ssDNA) [AMX(398)_E12],39.9 % bound
3,TCCCGATTATCCGTTGGTATTGTTGGTCTGGGTGGCTGAGGATCGATC (ssDNA) [AMX(398)_B12],20.2 % bound
4,TCCCTCGATCTTGGGGTACTATAGTGGTGTGGGTGGCTGAGGATCGATC (ssDNA) [AMX(398)_B10],25.7 % bound
5,TCCCGATTTGAGTTTAGTAGGGTGGGTAGGATGGTGGCTGAGGATCGATC (ssDNA) [AMX(398)_D1],11.8 % bound
6,TCCCATGATTGGCCGGGGTGTCTTTTGGGTCGGGTGGCTGAGGATCGATC (ssDNA) [AMX(398)_C6],11.6 % bound
7,TCCCCATCGATCCTGGTCTCTTTTGTTCTGGGTGGCTGAGGATCGATC (ssDNA) [AMX(399)_G11],11.8 % bound
8,TCCCATCGATTTGGGGTATGTTATGGGCTCGGGTGGCTGAGGATCGATC (ssDNA) [AMX(398)_A6],31.3 % bound
9,TCCCTGGTATCGTATCCAAAGGGGTGGTGTGGGTGGCTGAGGATCGATC (ssDNA) [AMX(399)_H8],14.3 % bound
10,TCCCTGATCCTTAGGCTAGGTTGGGTGGGGTGGTGGCTGAGGATCGATC (ssDNA) [AMX(398)_B5],8.27 % bound
11,TCCCGATCGTTTCGTGGGGTAGTGTTGGTTGGGGTGGCTGAGGATCGATC (ssDNA) [AMX(398)_C9],20.7 % bound
12,TCCCATTGATCTGTGGTGGTTTTGTGGTTTGGGTGGCTGAGGATCGATC (ssDNA) [AMX(398)_A2],28.4 % bound
13,TCCCTATCGACCGGGGTTCTTTCGTGGTTCGGGTGGCTGAGGATCGATC (ssDNA) [AMX(398)_E8],26.7 % bound
14,TCCCATGATCGGGTCGGTATTTGTTGGTCAGGGTGGCTGAGGATCGATC (ssDNA) [AMX(398)_D3],20.8 % bound
15,TCCCGGTTGTCGATTCTGGTATTGTTGGGCTGGGTGGCTGAGGATCGATC (ssDNA) [AMX(399)_H7],36.1 % bound
16,TCCCAGATGTGATCCGTATCCTGGTTTGGTTGGGTGGCTGAGGATCGATC (ssDNA) [AMX(398)_B3],16.5 % bound

# Source: patent US20090221680, “Aptamers that bind thrombin with high affinity” (published 2009)
